US20260007748A1 (KELONIA THERAPEUTICS, published 2026)

T1: B cell maturation antigen (BCMA) (human, UniProt Q02223 1-184)
T1 construct: BCMA as carried by RPMI-8226 (high BCMA) and Daudi (low BCMA) tumor cells; also called TNFRSF17; tumor necrosis factor receptor superfamily member 17
T1 sequence: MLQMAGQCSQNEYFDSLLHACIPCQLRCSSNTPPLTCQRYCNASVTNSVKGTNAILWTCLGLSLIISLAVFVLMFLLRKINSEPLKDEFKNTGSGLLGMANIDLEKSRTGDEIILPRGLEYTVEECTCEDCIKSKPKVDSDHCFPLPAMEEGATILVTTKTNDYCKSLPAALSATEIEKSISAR


Target: T1, B cell maturation antigen (BCMA)
Experiment: co-culture of transduced PBMCs with RPMI-8226 (high BCMA) or Daudi (low BCMA) cells; recognition read by IFNγ
Procedure: PBMCs transduced with recombinant lentiviral particles comprising a viral envelope expressing a mutated VSIV-G and a non-viral membrane-bound tropism polypeptide that binds CD3 and a lentiviral vector encoding an MNDU3 promoter operably linked to a polynucleotide encoding a CD8α signal peptide and an anti-BCMA CAR and a WPRE operably linked to the 3′ prime end of the polynucleotide encoding the anti-BCMA CAR (18 anti-BCMA CARs were evaluated) were co-cultured with Daudi cells (low BCMA expression) or RPMI-8226 cells (high BCMA expression) for 24 hours. After 24 hours, IFNγ levels in co-culture supernatant were measured and plotted as a function of % anti-BCMA CAR positive cells in the co-culture.
5×10⁴ PBMCs transduced with recombinant lentiviruses LV 1 to LV 19 were co-cultured with 5×10⁴ high BCMA-expressing tumor cells (RPMI-8226) or 5×10⁴ low BCMA-expressing tumor cells (Daudi) for 24 hours. Anti-BCMA CAR activity was assessed by harvesting co-culture supernatants and measuring IFNγ levels using a Meso Scale Discovery (MSD®) assay. The percentage of anti-BCMA CAR positive cells was plotted against IFNγ levels produced in co-culture. FIG. 2D.

Binder | binding result
anti-BCMA CAR of recombinant lentivirus LV 1 (SEQ ID NO: 256) (other, Chimeric antigen receptor on transduced human PBMCs: anti-BCMA scFv, CD8α hinge and TM, CD137 costim, CD3ζ; Encoded with a CD8α signal peptide) EIVLTQSPATLSLSPGERATLSCRASQSVSSYLAWYQQKPGQAPRLLIYDASNRATGIPARFSGSGSGTDFTLTISSLEPEDFAVYYCQQRVVYPITFGGGTKVEIKGGGGSGGGGSGGGGSGGGGSQITLKESGPTLVKPTQTLTLTCTFSGFSLSTSGVGVGWIRQPPGKALEWLALIYWNDEKRYSPSLKSRLTITKDTSKNQVVLTMTNMDPVDTAVYYCARDEYGGFDIWGQGTMVTVSSTTTPAPRPPTPAPTIASQPLSLRPEACRPAAGGAVHTRGLDFACDIYIWAPLAGTCGVLLLSLVITLYCKRGRKKLLYIFKQPFMRPVQTTQEEDGCSCRFPEEEEGGCELRVKFSRSADAPAYQQGQNQLYNELNLGRREEYDVLDKRRGRDPEMGGKPRRKNPQEGLYNELQKDKMAEAYSEIGMKGERRRGKGHDGLYQGLSTATKDTYDALHMQALPPR | binds
anti-BCMA CAR of recombinant lentivirus LV 2 (SEQ ID NO: 258) (other, Chimeric antigen receptor on transduced human PBMCs: anti-BCMA scFv, CD8α hinge and TM, CD137 costim, CD3ζ) EIVLTQSPATLSLSPGERATLSCRASQSVSSYLAWYQQKPGQAPRLLIYDASNRATGIPARFSGSGSGTDFTLTISSLEPEDFAVYYCQQRFDYPITFGGGTKVEIKGGGGSGGGGSGGGGSGGGGSQITLKESGPTLVKPTQTLTLTCTFSGFSLSTSGVGVGWIRQPPGKALEWLALIYWNDDKRYSPSLKSRLTITKDTSKNQVVLTMTNMDPVDTAVYYCARDEYGGFDIWGQGTMVTVSSTTTPAPRPPTPAPTIASQPLSLRPEACRPAAGGAVHTRGLDFACDIYIWAPLAGTCGVLLLSLVITLYCKRGRKKLLYIFKQPFMRPVQTTQEEDGCSCRFPEEEEGGCELRVKFSRSADAPAYQQGQNQLYNELNLGRREEYDVLDKRRGRDPEMGGKPRRKNPQEGLYNELQKDKMAEAYSEIGMKGERRRGKGHDGLYQGLSTATKDTYDALHMQALPPR | binds
anti-BCMA CAR of recombinant lentivirus LV 10 (SEQ ID NO: 274) (other, Chimeric antigen receptor on transduced human PBMCs: anti-BCMA VHH, CD8α hinge and TM, CD137 costim, CD3ζ) EVQLLESGGGLVQPGGSLRLSCAASGFTFESEAMSWYRQAPGKERELVSVITSEGSTYYADSVKGRFTISRDNSKNTLYLQMNSLRAEDTAVYYCAHIEWETRLNWGQGTQVTVSSTTTPAPRPPTPAPTIASQPLSLRPEACRPAAGGAVHTRGLDFACDIYIWAPLAGTCGVLLLSLVITLYCKRGRKKLLYIFKQPFMRPVQTTQEEDGCSCRFPEEEEGGCELRVKFSRSADAPAYQQGQNQLYNELNLGRREEYDVLDKRRGRDPEMGGKPRRKNPQEGLYNELQKDKMAEAYSEIGMKGERRRGKGHDGLYQGLSTATKDTYDALHMQALPPR | binds
anti-BCMA CAR of recombinant lentivirus LV 11 (SEQ ID NO: 275) (other, Chimeric antigen receptor on transduced human PBMCs: anti-BCMA VHH, CD8α hinge and TM, CD137 costim, CD3ζ) EVQLLESGGGLVQPGGSLRLSCAASGFTFDEYTMHWFRQAPGKEREFVSAISGGGSETYYADSVKGRFTISRDNSKNTLYLQMNSLRAEDTAVYYCAAGGEEAGVGYWGQGTQVTVSSTTTPAPRPPTPAPTIASQPLSLRPEACRPAAGGAVHTRGLDFACDIYIWAPLAGTCGVLLLSLVITLYCKRGRKKLLYIFKQPFMRPVQTTQEEDGCSCRFPEEEEGGCELRVKFSRSADAPAYQQGQNQLYNELNLGRREEYDVLDKRRGRDPEMGGKPRRKNPQEGLYNELQKDKMAEAYSEIGMKGERRRGKGHDGLYQGLSTATKDTYDALHMQALPPR | binds
anti-BCMA CAR of recombinant lentivirus LV 12 (SEQ ID NO: 276) (other, Chimeric antigen receptor on transduced human PBMCs: anti-BCMA VHH, CD8α hinge and TM, CD137 costim, CD3ζ) EVQLLESGGGLVQPGGSLRLSCAASGFTFEDYAMSWFRQAPGKEREGVSAISGKGGSTYYADSVKGRFTISRDNSKNTLYLQMNSLRAEDTAVYYCAVLDEEAGAEGGYWGQGTQVTVSSTTTPAPRPPTPAPTIASQPLSLRPEACRPAAGGAVHTRGLDFACDIYIWAPLAGTCGVLLLSLVITLYCKRGRKKLLYIFKQPFMRPVQTTQEEDGCSCRFPEEEEGGCELRVKFSRSADAPAYQQGQNQLYNELNLGRREEYDVLDKRRGRDPEMGGKPRRKNPQEGLYNELQKDKMAEAYSEIGMKGERRRGKGHDGLYQGLSTATKDTYDALHMQALPPR | binds
anti-BCMA CAR of recombinant lentivirus LV 13 (SEQ ID NO: 277) (other, Chimeric antigen receptor on transduced human PBMCs: anti-BCMA VHH, CD8α hinge and TM, CD137 costim, CD3ζ; also called LV 13.1 to LV 13.9) EVQLLESGGGLVQPGGSLRLSCAASGFTFDRYAMSWFRQAPGKEREGVSAISTSGDSTYYADSVKGRFTISRDNSKNTLYLQMNSLRAEDTAVYYCAVLDEEAGAEGGYWGQGTQVTVSSTTTPAPRPPTPAPTIASQPLSLRPEACRPAAGGAVHTRGLDFACDIYIWAPLAGTCGVLLLSLVITLYCKRGRKKLLYIFKQPFMRPVQTTQEEDGCSCRFPEEEEGGCELRVKFSRSADAPAYQQGQNQLYNELNLGRREEYDVLDKRRGRDPEMGGKPRRKNPQEGLYNELQKDKMAEAYSEIGMKGERRRGKGHDGLYQGLSTATKDTYDALHMQALPPR | binds
anti-BCMA CAR of recombinant lentivirus LV 15 (SEQ ID NO: 279) (other, Chimeric antigen receptor on transduced human PBMCs: anti-BCMA VHH, CD8α hinge and TM, CD137 costim, CD3ζ) EVQLLESGGGLVQPGGSLRLSCAASGFTFDSYTMSWYRQAPGKERELVSAISGHGDSTYYADSVKGRFTISRDNSKNTLYLQMNSLRAEDTAVYYCTRISITTEWLAGDYWGQGTQVTVSSTTTPAPRPPTPAPTIASQPLSLRPEACRPAAGGAVHTRGLDFACDIYIWAPLAGTCGVLLLSLVITLYCKRGRKKLLYIFKQPFMRPVQTTQEEDGCSCRFPEEEEGGCELRVKFSRSADAPAYQQGQNQLYNELNLGRREEYDVLDKRRGRDPEMGGKPRRKNPQEGLYNELQKDKMAEAYSEIGMKGERRRGKGHDGLYQGLSTATKDTYDALHMQALPPR | binds
anti-BCMA CAR of recombinant lentivirus LV 18 (SEQ ID NO: 283) (other, Chimeric antigen receptor on transduced human PBMCs: anti-BCMA VHH, CD8α hinge and TM, CD137 costim, CD3ζ) EVQLLESGGGLVQPGGSLRLSCAASGFTFSSEGMSWVRQAPGKERELVSAISGSGDHTYYADSVRGRFTISRDNSKNTLYLQMNSLRAEDTAVYYCNALEGGPTTAIQPGGPDYWGQGTQVTVSSTTTPAPRPPTPAPTIASQPLSLRPEACRPAAGGAVHTRGLDFACDIYIWAPLAGTCGVLLLSLVITLYCKRGRKKLLYIFKQPFMRPVQTTQEEDGCSCRFPEEEEGGCELRVKFSRSADAPAYQQGQNQLYNELNLGRREEYDVLDKRRGRDPEMGGKPRRKNPQEGLYNELQKDKMAEAYSEIGMKGERRRGKGHDGLYQGLSTATKDTYDALHMQALPPR | binds
anti-BCMA CAR of recombinant lentivirus LV 3 (SEQ ID NO: 259) (other, Chimeric antigen receptor on transduced human PBMCs: anti-BCMA scFv, CD8α hinge and TM, CD137 costim, CD3ζ; also called LV 3.1 to LV 3.9) QVQLVESGGGVVQPGRSLRLSCAASGFTFSSYGMHWVRQAPGKGLEWVAVISYEGSNKYYADSVKGRFTISRDNSKNTLYLQMNSLRAEDTAVYYCARELGDGMDVWGQGTTVTVSSGGGGSGGGGSGGGGSGGGGSEIVLTQSPATLSLSPGERATLSCRASQSVSSYLAWFQQKPGQAPRLLIYDASNRATGIPARFSGSGSGTDFTLTISSLEPEDFAVYYCQQRVDLWTFGGGTKVEIKTTTPAPRPPTPAPTIASQPLSLRPEACRPAAGGAVHTRGLDFACDIYIWAPLAGTCGVLLLSLVITLYCKRGRKKLLYIFKQPFMRPVQTTQEEDGCSCRFPEEEEGGCELRVKFSRSADAPAYQQGQNQLYNELNLGRREEYDVLDKRRGRDPEMGGKPRRKNPQEGLYNELQKDKMAEAYSEIGMKGERRRGKGHDGLYQGLSTATKDTYDALHMQALPPR | binds
anti-BCMA CAR of recombinant lentivirus LV 5 (SEQ ID NO: 263) (other, Chimeric antigen receptor on transduced human PBMCs: anti-BCMA scFv, CD8α hinge and TM, CD137 costim, CD3ζ; also called LV 5.1 to LV 5.9) QVQLVESGGGLVKPGGSLRLSCAASGFTFSDYYMSWIRQAPGKGLEWVSYISSSGSTIYYADSVKGRFTISRDNAKNSLYLQMNSLRAEDTAVYYCARDQGNYGVDVWGQGTTVTVSSGGGGSGGGGSGGGGSGGGGSDIQMTQSPSTLSASVGDRVTITCRASQSISSWLAWYQQKPGKAPKLLIYEASSLESGVPSRFSGSGSGTEFTLTISSLQPDDFATYYCQQSDSHPITFGGGTKVEIKTTTPAPRPPTPAPTIASQPLSLRPEACRPAAGGAVHTRGLDFACDIYIWAPLAGTCGVLLLSLVITLYCKRGRKKLLYIFKQPFMRPVQTTQEEDGCSCRFPEEEEGGCELRVKFSRSADAPAYQQGQNQLYNELNLGRREEYDVLDKRRGRDPEMGGKPRRKNPQEGLYNELQKDKMAEAYSEIGMKGERRRGKGHDGLYQGLSTATKDTYDALHMQALPPR | binds
anti-BCMA CAR of recombinant lentivirus LV 7 (SEQ ID NO: 268) (other, Chimeric antigen receptor on transduced human PBMCs: anti-BCMA scFv, CD8α hinge and TM, CD137 costim, CD3ζ) DIQMTQSPSSLSASVGDRVTITCRASQSISSYLNWYQQKPGKAPKLLIYAASSLQSGVPSRFSGSGSGTDFTLTISSLQPEDFATYYCQQAHSSPITFGGGTKVEIKGGGGSGGGGSGGGGSGGGGSEVQLLESGGGLVQPGGSLRLSCAASGFTFSNYAMSWVRQAPGKGLEWVSAISGSGGSTYYADSVKGRFTISRDNSKNTLYLQMNSLRAEDTAVYYCARPGDGYYEGVYFDYWGQGTLVTVSSTTTPAPRPPTPAPTIASQPLSLRPEACRPAAGGAVHTRGLDFACDIYIWAPLAGTCGVLLLSLVITLYCKRGRKKLLYIFKQPFMRPVQTTQEEDGCSCRFPEEEEGGCELRVKFSRSADAPAYQQGQNQLYNELNLGRREEYDVLDKRRGRDPEMGGKPRRKNPQEGLYNELQKDKMAEAYSEIGMKGERRRGKGHDGLYQGLSTATKDTYDALHMQALPPR | binds
anti-BCMA CAR of recombinant lentivirus LV 8 (SEQ ID NO: 270) (other, Chimeric antigen receptor on transduced human PBMCs: anti-BCMA scFv, CD8α hinge and TM, CD137 costim, CD3ζ; also called LV 8.1 to LV 8.9) DIQMTQSPSSLSASVGDRVTITCQASQDIANYLNWYQQKPGKAPKLLIYDASNLETGVPSRFSGSGSGTDFTFTISSLQPEDIATYYCQQHFNLPLTFGGGTKVEIKGGGGSGGGGSGGGGSGGGGSQITLKESGPTLVKPTQTLTLTCTFSGFSLSTSGVGVGWIRQPPGKALEWLALIYWNDEKRYSPSLKSRLTITKDTSKNQVVLTMTNMDPVDTAVYYCAREGSHDYKSSNWFDPWGQGTLVTVSSTTTPAPRPPTPAPTIASQPLSLRPEACRPAAGGAVHTRGLDFACDIYIWAPLAGTCGVLLLSLVITLYCKRGRKKLLYIFKQPFMRPVQTTQEEDGCSCRFPEEEEGGCELRVKFSRSADAPAYQQGQNQLYNELNLGRREEYDVLDKRRGRDPEMGGKPRRKNPQEGLYNELQKDKMAEAYSEIGMKGERRRGKGHDGLYQGLSTATKDTYDALHMQALPPR | binds
